The record followed here is the RNAGym collection of RNA variant scans (doi:10.1073/pnas.2313332121).

Fewer inactive variants are shown than the library holds. Where only a bound is given, the exact number is not on record here.

Sequences and labels used below:
B1: TPR 5TU (parent)
chain: GGAUCUUCUCGAUCUAACAAAAAAGACAAAUCUGCCACAAAGCUUGAGAGCAUCUUCGGAUGCAGAGGCGGCAGCCUUCGGUGGCGCGAUAGCGCCAACGUUCUCAACUAUGACACGCAAAACGCGUGCUCCGUUGAAUGGAGUUUAUCAUG

Variants of B1 are the subject of this series. The series is described as follows: polymerase ribozyme fitness, log enrichment relative to wild type (log ratio); higher = more active; in vitro selection for triplet polymerase activity. A digest of the protocol:
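Frozen incubation at −7 °C formed the core of a single, triplicate in vitro selection round applied to PCR-built, transcribed mutant libraries of each subunit of a heterodimeric triplet polymerase ribozyme. Extended constructs were gel-excised, captured with streptavidin beads and amplified by RT-PCR, and input and output libraries were Illumina-sequenced with a filter of ≥10 input reads and ≥1 read per output. Fitness is the logarithm of genotype enrichment relative to wild-type enrichment, with inverse-variance-weighted replicate averaging, and the logarithm is base 2.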
Regarding C43U G83U G92A, the “polymerase ribozyme fitness (log ratio)” value was no more than -4.2.
Consider G11A A12G C38U A41U C69U G83U, for which the “polymerase ribozyme fitness (log ratio)” value was -3.51.
On to G81A C131G G140C, for which the “polymerase ribozyme fitness (log ratio)” value is -4.
As to G58C U144C, the “polymerase ribozyme fitness (log ratio)” value was 0.128.
The figure for G34C A66G G86U A107C G141U is no more than -4.2.
As to C38U A47C A64C U78G G84C A97C C108U, the “polymerase ribozyme fitness (log ratio)” value is no more than -4.2.
For the variant C114A U139G, the “polymerase ribozyme fitness (log ratio)” value is -2.32.
As to A21U C118U A119G, the “polymerase ribozyme fitness (log ratio)” value was -3.17.
With G34U C54U U78G G83A C108G, the “polymerase ribozyme fitness (log ratio)” value was -4.13.
In the case of U31C C43A A66C C79U C85A A120C G140U, the “polymerase ribozyme fitness (log ratio)” value was no more than -4.2.
Turning to A23U U148C, the “polymerase ribozyme fitness (log ratio)” value is -4.13.
Regarding G81U C93U G94U A98G C131A A137U, the “polymerase ribozyme fitness (log ratio)” value was no more than -4.2.
As to A39C C85U C149U, the “polymerase ribozyme fitness (log ratio)” value was -2.98.
To A29C C54U C85U belongs no more than -4.2.
In the case of U7A U9A A21U U55A G59A C99G C129U A147C, the “polymerase ribozyme fitness (log ratio)” value is no more than -4.2.
The figure for C76G G84A C118A G141C is no more than -4.2.
U53A A89U: the “polymerase ribozyme fitness (log ratio)” value is -0.481.
As to A16C A20U A28U C35A G50U G59C G84A C87G C96U C103A U148A, the “polymerase ribozyme fitness (log ratio)” value was no more than -4.2.
Consider U15G A24C C35A A107U A147U, for which the “polymerase ribozyme fitness (log ratio)” value was no more than -4.2.
In the case of A16G C43U C79U C132U, the “polymerase ribozyme fitness (log ratio)” value was no more than -4.2.
The figure for C18G A30U C35A U61G G62U C93U U111G G124A is no more than -4.2; for U61A A66U U82C G92C C95G it is no more than -4.2; for G11A G92U it is -1.16.
The figure for C72U G152A is -2.42; for C57A G117U it is 0.691; for U6G A22U A40G C57A G94A it is -2.43.
To A20G G50C C54G C105G A106U G133C U151A belongs no more than -4.2.
Take A21G C76A G86U C93G U101C A122G: the “polymerase ribozyme fitness (log ratio)” value is -0.0234.
For the variant G58A U135C, the “polymerase ribozyme fitness (log ratio)” value is -1.39.
The figure for A30G G74U C95A U148G is no more than -4.2.
On to A37C A47U G58A U61G A91G A107C A113G A138U, for which the “polymerase ribozyme fitness (log ratio)” value was no more than -4.2.
To G46C U61G U78A C93A belongs no more than -4.2; to C38U U55A C85U, -0.272.
With C54A U55A C57A, the “polymerase ribozyme fitness (log ratio)” value was determined as 0.336.
On to A20C A39C C79G A106G G124U, for which the “polymerase ribozyme fitness (log ratio)” value was no more than -4.2.
For A73U C93U, the “polymerase ribozyme fitness (log ratio)” value was -1.62.
The figure for C5A A47U G84A G124U is -1.14; for G81C G140C it is -3.7; for C54A C87A C114A C116G it is no more than -4.2.
On to A3C A60G, for which the “polymerase ribozyme fitness (log ratio)” value is -0.264.
As for A39G C103G G126U, the “polymerase ribozyme fitness (log ratio)” value is no more than -4.2.
To A17G A47C C87A G88C A91U U111A belongs no more than -4.2; to U31C C57G C87U U102A G136A, -0.199.
As for C35U C95U A107C U109A A115U, the “polymerase ribozyme fitness (log ratio)” value is no more than -4.2.
With A122G U144G, the “polymerase ribozyme fitness (log ratio)” value was found to be 0.851.
With U53G C57A C85U A115U A121C, the “polymerase ribozyme fitness (log ratio)” value is -2.93.
Take U33C A97G: the “polymerase ribozyme fitness (log ratio)” value was -2.92.
To C27G A106U belongs -3.92; to A23C C87U, -3.89.
A23C C87G: the “polymerase ribozyme fitness (log ratio)” value is no more than -4.2.
To C69G C85U G86A belongs -3.62; to A66G U77A G83U U104A G117U, no more than -4.2.
With A16C A91C U101C, the “polymerase ribozyme fitness (log ratio)” value was no more than -4.2.
As for G86A C105U, the “polymerase ribozyme fitness (log ratio)” value is -0.138.
A3C C43U U53A U61G U101G U139A: the “polymerase ribozyme fitness (log ratio)” value was no more than -4.2.
In the case of C18U A91G, the “polymerase ribozyme fitness (log ratio)” value is -3.63.
Take U56G U78G C79U G86A C87G C95A A115U G152C: the “polymerase ribozyme fitness (log ratio)” value was no more than -4.2.
As to U13G G48C G81A C96A, the “polymerase ribozyme fitness (log ratio)” value is no more than -4.2.
As to U15A A39C C123U A137C U151C, the “polymerase ribozyme fitness (log ratio)” value was no more than -4.2.
To U15G G48U C54U C123A G136U belongs -2.93.
As to U55A A106C C125G, the “polymerase ribozyme fitness (log ratio)” value was -1.63.
For A60C U61C C76U A121G, the “polymerase ribozyme fitness (log ratio)” value is no more than -4.2.
Consider A23U C27G A40G A47U G67A G83U G84A, for which the “polymerase ribozyme fitness (log ratio)” value was no more than -4.2.
To A16U A120U belongs -2; to A64G G68C A142G G143A, no more than -4.2; to C75U G83A C105G G128U U134A A138U G141U, no more than -4.2.
To U6C A23G A91U A106G belongs no more than -4.2; to G11C G58A, -1.65.
On to A20G A39G G50C C85A C93A C114G C125G, for which the “polymerase ribozyme fitness (log ratio)” value is no more than -4.2.
For the variant C10U A107G, the “polymerase ribozyme fitness (log ratio)” value is no more than -4.2.
For U44A G83U, the “polymerase ribozyme fitness (log ratio)” value was -3.94.
The figure for A19C G117C is 0.678.
U61G C75G G88U A89U U101A G140C: the “polymerase ribozyme fitness (log ratio)” value was no more than -4.2.
For the variant C57G A60C, the “polymerase ribozyme fitness (log ratio)” value is -2.4.
Regarding G11U A52G A60G G83U, the “polymerase ribozyme fitness (log ratio)” value was -3.33.
For the variant C72G A89G G92A C114G, the “polymerase ribozyme fitness (log ratio)” value is no more than -4.2.
The figure for G11A A28U C32U A47U C79A is no more than -4.2; for U102G A121U it is -2.32; for C5G U82A C95U it is -0.788.
Take U45A U102C C105U A119C G143A: the “polymerase ribozyme fitness (log ratio)” value was no more than -4.2.
To C43A U45G U90A U102G G140A A147C belongs no more than -4.2; to A37G C54A G141A, -2.78.
With A19U A40C A91U C95G, the “polymerase ribozyme fitness (log ratio)” value was no more than -4.2.
In the case of C75A G83A A98U, the “polymerase ribozyme fitness (log ratio)” value is -4.16.
